Measured values taken from US20160297889A1 (TORAY INDUSTRIES, published 2016).

T1: CAPRIN-1 protein expressed on the membrane surface of human cancer cells (human, UniProt Q14444 2-709)
T1 sequence (looked up): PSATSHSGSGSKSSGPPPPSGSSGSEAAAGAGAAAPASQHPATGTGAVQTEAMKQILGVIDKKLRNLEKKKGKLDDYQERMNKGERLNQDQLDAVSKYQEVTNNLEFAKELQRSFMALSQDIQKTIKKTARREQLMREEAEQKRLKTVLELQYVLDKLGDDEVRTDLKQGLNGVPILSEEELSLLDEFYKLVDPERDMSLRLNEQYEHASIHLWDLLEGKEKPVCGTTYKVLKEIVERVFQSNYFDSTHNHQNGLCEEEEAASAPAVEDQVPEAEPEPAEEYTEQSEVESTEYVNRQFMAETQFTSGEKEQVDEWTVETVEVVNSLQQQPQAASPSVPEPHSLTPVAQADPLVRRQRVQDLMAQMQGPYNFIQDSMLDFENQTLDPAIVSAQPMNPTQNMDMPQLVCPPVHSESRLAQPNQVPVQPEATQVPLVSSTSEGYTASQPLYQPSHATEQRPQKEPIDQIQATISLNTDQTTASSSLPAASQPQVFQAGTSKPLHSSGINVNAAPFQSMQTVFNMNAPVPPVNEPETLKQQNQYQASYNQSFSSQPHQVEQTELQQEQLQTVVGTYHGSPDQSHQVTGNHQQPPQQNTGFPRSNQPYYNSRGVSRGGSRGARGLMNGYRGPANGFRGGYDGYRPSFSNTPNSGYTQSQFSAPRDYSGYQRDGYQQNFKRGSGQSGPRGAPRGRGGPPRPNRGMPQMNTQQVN

B1: humanized antibody #7 (antibody, V domains shown)
VH: EVQLVESGGGLVQPGGSLRLSCAASGFSLSSHSLGWVRQAPGKGLEWIGDIRSGGSAYYANWAKGRFTISRDNSKNTLYLQMNSLRAEDTAVYYCTRTNGPSDLTNRLDLWGQGTLVTVSS
VL: QVLTQSPSSLSASVGDRVTINCQASQSLYNNENLAWFQQKPGKVPKRLIYGASTLASGVSSRFSGSGSGTEFTLTISSLQCEDFAIYYCLGEFSCGSADCFAFGGGTKVEIK
B2: humanized antibody #2 (antibody, V domains shown)
VH: EVQLVESGGGLVQPGGSLRLSCAASGFSLSSHSLGWVRQAPGKGLEWIGDIRSGGSAYYANWAKGRFTISRDNSKNTLYLQMNSLRAEDTAVYYCTRTNGPSDLTNRLDLWGQGTLVTVSS
VL: EIVLTQSPSSLSASVGDRVTINCQASQSLYNNENLAWFQQKPGKVPKRLIYGASTLASGVSSRFSGSGSGTEFTLTISNLQPEDFATYYCLGEFSCGSADCFAFGGGTKVEIK
B3: humanized antibody #6 (antibody, V domains shown)
VH: EVQLVESGGGLVQPGGSLRLSCAASGFSLSSHSLGWVRQAPGKGLEWIGDIRSGGSAYYANWAKGRFTISRDNSKNTLYLQMNSLRAEDTAVYFCTRTNGPSDLTNRLDLWGQGTLVTVSS
VL: QVLTQSPSSLSASVGDRVTINCQASQSLYNNENLAWFQQKPGKVPKRLIYGASTLASGVSSRFSGSGSGTEFTLTISSLQCEDFAIYYCLGEFSCGSADCFAFGGGTKVEIK
B4: humanized antibody #10 (antibody, V domains shown)
VH: EQSLVESGGGLVQPGGSLRLSCAASGFSLSSHSLGWVRQAPGKGLEWIGDIRSGGSAYYANWAKGRFTISRDNSKNTLYLQMNSLRAEDTAVYYCTRTNGPSDLTNRLDLWGQGTLVTVSS
VL: QVLTQSPSSLSASVGDRVTINCQASQSLYNNENLAWFQQKPGKVPKRLIYGASTLASGVSSRFSGSGSGTEFTLTISSLQCEDFAIYYCLGEFSCGSADCFAFGGGTKVEIK

target: T1, CAPRIN-1 protein expressed on the …; assay: cell-based or functional assay

B1 and B2 cannot be ordered by “ADCC cytotoxic activity (51Cr release) on 22Rv1” value: at least 49% for the first, at least 45% for the second.

B3 and B4 cannot be ordered by “ADCC cytotoxic activity (51Cr release) on 22Rv1” value: at least 49% for the first, at least 49% for the second.

B1 and B2 cannot be ordered by “ADCC cytotoxic activity (51Cr release) on A-673” value: at least 50% for the first, at least 46% for the second.

B3 and B4 cannot be ordered by “ADCC cytotoxic activity (51Cr release) on A-673” value: at least 50% for the first, at least 50% for the second.

B1 and B2 cannot be ordered by “ADCC cytotoxic activity (51Cr release) on BT-474” value: at least 54% for the first, at least 50% for the second.

B3 and B4 cannot be ordered by “ADCC cytotoxic activity (51Cr release) on BT-474” value: at least 54% for the first, at least 54% for the second.

B1 and B2 cannot be ordered by “ADCC cytotoxic activity (51Cr release) on Caki-2” value: at least 37% for the first, at least 33% for the second.

B3 and B4 cannot be ordered by “ADCC cytotoxic activity (51Cr release) on Caki-2” value: at least 37% for the first, at least 37% for the second.

B1 and B2 cannot be ordered by “ADCC cytotoxic activity (51Cr release) on FaDu” value: at least 50% for the first, at least 40% for the second.

B3 and B4 cannot be ordered by “ADCC cytotoxic activity (51Cr release) on FaDu” value: at least 50% for the first, at least 50% for the second.

B1 and B2 cannot be ordered by “ADCC cytotoxic activity (51Cr release) on G-361” value: at least 25% for the first, at least 21% for the second.

B3 and B4 cannot be ordered by “ADCC cytotoxic activity (51Cr release) on G-361” value: at least 25% for the first, at least 25% for the second.

B1 and B2 cannot be ordered by “ADCC cytotoxic activity (51Cr release) on HEC-1-A” value: at least 52% for the first, at least 45% for the second.

B3 and B4 cannot be ordered by “ADCC cytotoxic activity (51Cr release) on HEC-1-A” value: at least 52% for the first, at least 52% for the second.

B1 and B2 cannot be ordered by “ADCC cytotoxic activity (51Cr release) on HT-29” value: at least 43% for the first, at least 40% for the second.

B3 and B4 cannot be ordered by “ADCC cytotoxic activity (51Cr release) on HT-29” value: at least 43% for the first, at least 43% for the second.

B1 and B2 cannot be ordered by “ADCC cytotoxic activity (51Cr release) on HT-1080” value: at least 30% for the first, at least 25% for the second.

B3 and B4 cannot be ordered by “ADCC cytotoxic activity (51Cr release) on HT-1080” value: at least 30% for the first, at least 30% for the second.

B1 and B2 cannot be ordered by “ADCC cytotoxic activity (51Cr release) on HT-1376” value: at least 45% for the first, at least 40% for the second.

B3 and B4 cannot be ordered by “ADCC cytotoxic activity (51Cr release) on HT-1376” value: at least 45% for the first, at least 45% for the second.

B1 and B2 cannot be ordered by “ADCC cytotoxic activity (51Cr release) on Hep3B” value: at least 28% for the first, at least 25% for the second.

B3 and B4 cannot be ordered by “ADCC cytotoxic activity (51Cr release) on Hep3B” value: at least 28% for the first, at least 28% for the second.

B1 and B2 cannot be ordered by “ADCC cytotoxic activity (51Cr release) on IM-9” value: at least 35% for the first, at least 30% for the second.

B3 and B4 cannot be ordered by “ADCC cytotoxic activity (51Cr release) on IM-9” value: at least 35% for the first, at least 35% for the second.

B1 and B2 cannot be ordered by “ADCC cytotoxic activity (51Cr release) on MDA-MB-361” value: at least 52% for the first, at least 45% for the second.

B3 and B4 cannot be ordered by “ADCC cytotoxic activity (51Cr release) on MDA-MB-361” value: at least 52% for the first, at least 52% for the second.

B1 and B2 cannot be ordered by “ADCC cytotoxic activity (51Cr release) on NCI-H2452” value: at least 35% for the first, at least 39% for the second.

B3 and B4 cannot be ordered by “ADCC cytotoxic activity (51Cr release) on NCI-H2452” value: at least 35% for the first, at least 35% for the second.

B1 and B2 cannot be ordered by “ADCC cytotoxic activity (51Cr release) on NCI-N87” value: at least 45% for the first, at least 38% for the second.

B3 and B4 cannot be ordered by “ADCC cytotoxic activity (51Cr release) on NCI-N87” value: at least 45% for the first, at least 45% for the second.

B1 and B2 cannot be ordered by “ADCC cytotoxic activity (51Cr release) on NT/D1” value: at least 37% for the first, at least 30% for the second.

B3 and B4 cannot be ordered by “ADCC cytotoxic activity (51Cr release) on NT/D1” value: at least 37% for the first, at least 37% for the second.

B1 and B2 cannot be ordered by “ADCC cytotoxic activity (51Cr release) on OCI-AML5” value: at least 20% for the first, at least 18% for the second.

B3 and B4 cannot be ordered by “ADCC cytotoxic activity (51Cr release) on OCI-AML5” value: at least 20% for the first, at least 20% for the second.

B1 and B2 cannot be ordered by “ADCC cytotoxic activity (51Cr release) on OE33” value: at least 35% for the first, at least 33% for the second.

B3 and B4 cannot be ordered by “ADCC cytotoxic activity (51Cr release) on OE33” value: at least 35% for the first, at least 35% for the second.

B1 and B2 cannot be ordered by “ADCC cytotoxic activity (51Cr release) on Panc10.5” value: at least 35% for the first, at least 30% for the second.

B3 and B4 cannot be ordered by “ADCC cytotoxic activity (51Cr release) on Panc10.5” value: at least 35% for the first, at least 35% for the second.

B1 and B2 cannot be ordered by “ADCC cytotoxic activity (51Cr release) on QG56” value: at least 46% for the first, at least 42% for the second.

B3 and B4 cannot be ordered by “ADCC cytotoxic activity (51Cr release) on QG56” value: at least 46% for the first, at least 46% for the second.

B1 and B2 cannot be ordered by “ADCC cytotoxic activity (51Cr release) on RD-ES” value: at least 48% for the first, at least 40% for the second.

B3 and B4 cannot be ordered by “ADCC cytotoxic activity (51Cr release) on RD-ES” value: at least 48% for the first, at least 48% for the second.

B1 and B2 cannot be ordered by “ADCC cytotoxic activity (51Cr release) on RPM11666” value: at least 40% for the first, at least 36% for the second.

B3 and B4 cannot be ordered by “ADCC cytotoxic activity (51Cr release) on RPM11666” value: at least 40% for the first, at least 40% for the second.

B1 and B2 cannot be ordered by “ADCC cytotoxic activity (51Cr release) on Ramos” value: at least 20% for the first, at least 18% for the second.

B3 and B4 cannot be ordered by “ADCC cytotoxic activity (51Cr release) on Ramos” value: at least 20% for the first, at least 20% for the second.

B1 and B2 cannot be ordered by “ADCC cytotoxic activity (51Cr release) on SKOV3” value: at least 35% for the first, at least 31% for the second.

B3 and B4 cannot be ordered by “ADCC cytotoxic activity (51Cr release) on SKOV3” value: at least 35% for the first, at least 35% for the second.

B1 and B2 cannot be ordered by “ADCC cytotoxic activity (51Cr release) on T24” value: at least 36% for the first, at least 33% for the second.

B3 and B4 cannot be ordered by “ADCC cytotoxic activity (51Cr release) on T24” value: at least 36% for the first, at least 36% for the second.

B1 and B2 cannot be ordered by “ADCC cytotoxic activity (51Cr release) on TGBC14TKB” value: at least 35% for the first, at least 30% for the second.

B3 and B4 cannot be ordered by “ADCC cytotoxic activity (51Cr release) on TGBC14TKB” value: at least 35% for the first, at least 35% for the second.

B1 and B2 cannot be ordered by “ADCC cytotoxic activity (51Cr release) on TT” value: at least 42% for the first, at least 35% for the second.

B3 and B4 cannot be ordered by “ADCC cytotoxic activity (51Cr release) on TT” value: at least 42% for the first, at least 42% for the second.

B1 and B2 cannot be ordered by “ADCC cytotoxic activity (51Cr release) on U-87MG” value: at least 36% for the first, at least 29% for the second.

B3 and B4 cannot be ordered by “ADCC cytotoxic activity (51Cr release) on U-87MG” value: at least 36% for the first, at least 36% for the second.
